What was measured:
Δ2 CD55 IRES GFP = experiment: flow cytometry on cells
[1] = target: recombinant Fc-tagged CD55 (UniProt P08174); experiment: SPR; Biacore T200, 25°C; CD55-Fc immobilized on a Protein G chip, tetramers or monomers as analyte; 150mM NaCl, 0.05% BSA, 0.05% Tween-20, pH 7,5; KD calculated from kon and koff; biological duplicate
Sequence of UniProt P08174 (P08174 35-353): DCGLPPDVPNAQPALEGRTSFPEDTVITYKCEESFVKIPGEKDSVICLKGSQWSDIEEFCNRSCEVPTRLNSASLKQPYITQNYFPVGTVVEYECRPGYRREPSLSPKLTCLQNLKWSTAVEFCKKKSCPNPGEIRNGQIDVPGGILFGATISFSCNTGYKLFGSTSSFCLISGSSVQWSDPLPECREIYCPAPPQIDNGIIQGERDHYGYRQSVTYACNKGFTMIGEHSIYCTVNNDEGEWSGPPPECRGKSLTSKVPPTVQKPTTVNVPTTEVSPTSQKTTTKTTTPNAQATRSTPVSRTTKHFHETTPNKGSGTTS

Substance: HLA-C∗07:01-VRIG tetramer (from UniProt P61769 21-119) (peptide-MHC)
- reduction of the interaction against full length CD55 (Δ2 CD55 IRES GFP): 50%
- Kd [1]: 1400 nM

Reference: article PMC11209011
